Experimental data taken from patent US20200115433A1.

Target: …-HLA-A2 complex (human)
Test: SPR BIAcore T200, single-cycle kinetics, pMHC on chip

B1: single chain TCR s-10 (TCR)
chain: SQQGEEDPQALSIQEGENVTINCSYKGWAQNRQNSGRGLVHLILIRSNEREKHSGRLRVTLDTSKKSSSLEITAVRPADTASYFCATDANARWDFGKGTRLHILPGGGSEGGGSEGGGSEGGGSEGGTGDAGVTQSPRHESVEMGQEVTLRCKPISGHDYLFWYRQTPKRGLELLIYFNHGAVIDDSGMPEDRFSAKMPNASFSTLKIQPVEPRDSAVYFCASQLGSNEQYFGPGTRLTVT
**Q.** For B1, which Kd is on record?
**A.** The Kd was 425 pM.
